According to patent publication US20220048996A1:

Key:
[1] = target: human OX40 expressed on DO11.10 cells (DO11.10-hOX40) (human) (UniProt P43489); assay: cell-based or functional assay
[2] = target: cynomolgus OX40 expressed on DO11.10 cells (DO11.10-cOX40) (cynomolgus); assay: flow cytometry on DO11.10 cells expressing the target
[3] = target: human OX40 expressed on DO11.10 cells (DO11.10-hOX40) (human) (UniProt P43489); assay: as above
[4] = target: hFcγR1 (R&D Systems 1257-FC-050/CF) (human) (UniProt P12314); assay: SPR, antibody 100 nM on OX40-his chip co-injected with FcγR 500 nM
[5] = target: hFcγR2a (R&D Systems 1330-CD-050/CF) (human) (UniProt P12318); assay: as above
[6] = target: hFcγR2b (R&D Systems 1460-CD-050/CF) (human) (UniProt P31994); assay: as above
[7] = target: hFcγR3a (R&D Systems 4325-FC-050/CF) (human) (UniProt P08637); assay: as above
hOX40-mFc (human) = assay: SPR, antibody captured via anti-human Fab, dimeric antigen flowed, 1:1 fit
[8] = target: mouse CD137 expressed on DO11.10 cells (DO11.10-mCD137) (mouse) (UniProt P20334); assay: flow cytometry on DO11.10 cells expressing the target
[9] = target: cynomolgus OX40 expressed on DO11.10 cells (DO11.10-cOX40) (cynomolgus); assay: flow cytometry on DO11.10-cOX40
[10] = target: human OX40 expressed on DO11.10 cells (DO11.10-hOX40) (human) (UniProt P43489); assay: flow cytometry on DO11.10-hOX40
[11] = target: mouse CD137 expressed on DO11.10 cells (DO11.10-mCD137) (mouse) (UniProt P20334); assay: cell-based or functional assay
[12] = target: hFcγR1 (R&D Systems 1257-FC-050/CF) (human) (UniProt P12314); assay: SPR, antibody 100 nM on CD137-his chip co-injected with FcγR 500 nM
[13] = target: hFcγR2a (R&D Systems 1330-CD-050/CF) (human) (UniProt P12318); assay: as above
[14] = target: hFcγR2b (R&D Systems 1460-CD-050/CF) (human) (UniProt P31994); assay: as above
[15] = target: hFcγR3a (R&D Systems 4325-FC-050/CF) (human) (UniProt P08637); assay: as above

hFcγR2a (R&D Systems 1330-CD-050/CF) (human), sequence (P12318 36-218 limits assumed): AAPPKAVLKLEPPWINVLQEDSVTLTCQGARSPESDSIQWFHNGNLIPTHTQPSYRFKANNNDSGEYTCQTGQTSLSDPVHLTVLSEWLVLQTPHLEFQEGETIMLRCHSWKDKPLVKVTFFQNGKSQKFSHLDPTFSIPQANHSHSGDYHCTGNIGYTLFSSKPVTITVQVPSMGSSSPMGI
hFcγR1 (R&D Systems 1257-FC-050/CF) (human), sequence (P12314 16-288 limits assumed): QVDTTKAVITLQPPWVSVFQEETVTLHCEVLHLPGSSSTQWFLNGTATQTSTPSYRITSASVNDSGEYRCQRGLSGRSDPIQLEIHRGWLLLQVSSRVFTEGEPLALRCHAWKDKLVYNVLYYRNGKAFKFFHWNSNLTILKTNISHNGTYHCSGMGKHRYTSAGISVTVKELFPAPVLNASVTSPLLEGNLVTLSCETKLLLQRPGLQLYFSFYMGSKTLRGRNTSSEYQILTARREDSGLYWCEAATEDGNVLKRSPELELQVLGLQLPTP
mouse CD137 expressed on DO11.10 cells (DO11.10-mCD137) (mouse), sequence (P20334 24-256): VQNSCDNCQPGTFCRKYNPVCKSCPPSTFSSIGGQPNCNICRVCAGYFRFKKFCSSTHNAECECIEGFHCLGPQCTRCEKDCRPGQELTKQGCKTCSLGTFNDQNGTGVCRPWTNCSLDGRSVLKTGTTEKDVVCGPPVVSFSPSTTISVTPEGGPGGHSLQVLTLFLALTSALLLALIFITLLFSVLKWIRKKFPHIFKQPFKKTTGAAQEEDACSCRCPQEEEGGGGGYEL
hFcγR2b (R&D Systems 1460-CD-050/CF) (human), sequence (P31994 46-217 limits assumed): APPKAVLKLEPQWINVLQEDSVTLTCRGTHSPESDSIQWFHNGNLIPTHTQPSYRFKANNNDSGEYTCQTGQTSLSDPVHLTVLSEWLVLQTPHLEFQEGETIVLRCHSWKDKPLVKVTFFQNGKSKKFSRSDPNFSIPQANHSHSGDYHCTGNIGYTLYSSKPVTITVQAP
hFcγR3a (R&D Systems 4325-FC-050/CF) (human), sequence (P08637 17-208 limits assumed): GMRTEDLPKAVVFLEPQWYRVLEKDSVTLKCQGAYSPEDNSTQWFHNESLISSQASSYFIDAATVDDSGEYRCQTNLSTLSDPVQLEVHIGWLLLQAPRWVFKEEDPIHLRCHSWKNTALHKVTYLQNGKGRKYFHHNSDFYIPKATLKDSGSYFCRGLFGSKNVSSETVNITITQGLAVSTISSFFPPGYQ
human OX40 expressed on DO11.10 cells (DO11.10-hOX40) (human), sequence (P43489 29-277): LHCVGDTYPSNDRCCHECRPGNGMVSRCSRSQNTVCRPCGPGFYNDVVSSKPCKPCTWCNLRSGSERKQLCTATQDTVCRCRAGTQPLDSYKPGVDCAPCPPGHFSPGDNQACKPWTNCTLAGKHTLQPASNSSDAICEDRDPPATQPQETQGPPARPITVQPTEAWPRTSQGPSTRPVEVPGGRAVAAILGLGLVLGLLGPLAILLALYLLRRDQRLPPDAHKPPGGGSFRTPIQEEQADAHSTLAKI
cynomolgus OX40 expressed on DO11.10 cells (DO11.10-cOX40) (cynomolgus), sequence (P43489 other isoform, or with tags, fused parts or gaps): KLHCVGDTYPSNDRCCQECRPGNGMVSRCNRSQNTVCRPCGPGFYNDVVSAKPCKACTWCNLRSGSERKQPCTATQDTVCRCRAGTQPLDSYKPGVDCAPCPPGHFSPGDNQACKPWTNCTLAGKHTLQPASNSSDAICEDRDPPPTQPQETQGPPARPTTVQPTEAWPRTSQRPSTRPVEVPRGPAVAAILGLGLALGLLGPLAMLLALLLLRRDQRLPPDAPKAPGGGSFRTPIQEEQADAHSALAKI
hOX40-mFc (human), sequence (chain, as listed by the source limits assumed): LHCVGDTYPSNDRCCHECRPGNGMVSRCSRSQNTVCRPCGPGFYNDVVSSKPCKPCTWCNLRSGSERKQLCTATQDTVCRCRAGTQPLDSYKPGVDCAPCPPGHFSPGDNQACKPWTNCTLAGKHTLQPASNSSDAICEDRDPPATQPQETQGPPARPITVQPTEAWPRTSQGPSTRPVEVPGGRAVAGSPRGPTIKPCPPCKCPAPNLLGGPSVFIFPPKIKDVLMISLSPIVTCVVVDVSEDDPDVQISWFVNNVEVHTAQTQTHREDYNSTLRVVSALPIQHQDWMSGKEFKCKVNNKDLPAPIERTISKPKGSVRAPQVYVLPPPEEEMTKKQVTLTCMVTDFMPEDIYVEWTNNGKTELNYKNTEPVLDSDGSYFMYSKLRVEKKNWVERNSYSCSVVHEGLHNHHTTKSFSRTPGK

Row | SEA assay (PBMC), hIL-2 max response, crosslinked [1] | SEA assay (PBMC), hIL-2 release EC50, crosslinked [1] | pan-T cell activation assay, hIL-2 max response, crosslinked [1] | pan-T cell activation assay, hIL-2 release EC50, crosslinked [1] | binding response at end of association phase of FcγR [4] | decrease of binding response at end of dissociation phase of FcγR [4] | binding response at end of association phase of FcγR [5] | binding response at end of association phase of FcγR [6] | binding response at end of association phase of FcγR [7] | Substance | also measured
1 | 6610 pg/mL | 0.13 nM | 6380 pg/mL | 0.0513 nM | 370 RU | 46.4 RU | 123 RU | 89.7 RU | 143 RU | G1/11D4 (antibody) | EC50 [2]: 0.0941 nM; EC50 [3]: 0.125 nM; Kd (hOX40-mFc (human)): 0.0337 nM
2 |  |  |  |  |  |  |  |  |  | G1/Lob12.3 (antibody) | EC50 [8]: 0.121 nM
3 | 4270 pg/mL | 0.0716 nM | 4130 pg/mL | 0.13 nM | 292 RU | 203 RU | 64.5 RU | 60.9 RU | 67.3 RU | G1AA/11D4 (antibody) | CD4+ T cell activation assay, hIL-2 max response, crosslinked [1]: 8820 pg/mL; CD4+ T cell activation assay, hIL-2 release EC50, crosslinked [1]: 0.0813 nM; CD8+ T cell activation assay, hIL-2 max response, crosslinked [1]: 388 pg/mL; CD8+ T cell activation assay, hIL-2 release EC50, crosslinked [1]: 0.0996 nM; EC50 [9]: 0.213 nM; EC50 [10]: 0.814 nM
4 |  |  |  |  |  |  |  |  |  | G1AA/Lob12.3 (antibody) | mouse pan-T cell activation assay, mIL-2 max response, crosslinked [11]: 374 pg/mL; mouse pan-T cell activation assay, mIL-2 release EC50, crosslinked [11]: 1.18 nM
5 |  |  |  |  |  |  |  |  |  | G4/20H4.9 (antibody) | binding response at end of association phase of FcγR [12]: 693 RU; decrease of binding response at end of dissociation phase of FcγR [12]: 57.1 RU; binding response at end of association phase of FcγR [13]: 156 RU; binding response at end of association phase of FcγR [14]: 164 RU; binding response at end of association phase of FcγR [15]: 113 RU
